Source: patent US6713042B2, “Ascorbic acid analogs for metalloradiopharmaceuticals” (Bristol-Myers Squibb Pharma Company, priority 2001, dated 2004)

How the values were obtained:
[1] = Solution stability of the 111In-labeled conjugate in ascorbic acid buffer, RCP by HPLC (Method 3); format: physicochemical; conditions: for RCP (radiochemical purity): 0.1 M ascorbic acid buffer pH 6.0
Protocol: The integrity of a radiopharmaceutical is measured by the radiochemical purity (RCP) of the radiolabeled compound using ITLC or more preferably HPLC. The advantage of using HPLC is that radio-impurities caused by radiolytic degradation can be separated from the radiopharmaceutical under optimized chromatographic conditions. […] The radiopharmaceutical compositions of this invention are effective in maintaining the long-term stability of samples that have been frozen, thawed, and re-tested up to 5 days post-labeling. The initial RCP of a radiopharmaceutical is largely dependent on radiolabeling conditions such as pH, heating temperature and time. Once a radiopharmaceutical is prepared in high yield, the ability of an antioxidant to stabilize a radiopharmaceutical composition is measured by the RCP change over a certain period of time. The integrity of a radiopharmaceutical is measured by the radiochemical purity (RCP) of the radiolabeled compound using ITLC or more preferably HPLC. The advantage of using HPLC is that radio-impurities caused by radiolytic degradation can be separated from the radiopharmaceutical under optimized chromatographic conditions. […] The radiopharmaceutical compositions of this invention are effective in maintaining the long-term stability of samples that have been frozen, thawed, and re-tested periodically for 5 days. The initial RCP of a radiopharmaceutical is largely dependent on radiolabeling conditions such as pH, heating temperature and time. Once a radiopharmaceutical is prepared in high yield, the stability of the radiopharmaceutical composition is measured by the RCP change of the radiopharmaceutical over a certain period of time. HPLC method 3 used a HP-1100 HPLC system with a UV/visible detector (k=220 nm), an IN-US radio-detector, and a Zorbax C18 column (4.6 mm×250 mm, 80 A pore size). […] After cooling to room temperature, a sample of the resulting solution was then analyzed by HPLC (Method 3, injection volume=10 μL). […] Samples were analyzed at t 0 (RCP 98.2%) and 24 h (RCP=97.6%). […]

[2] = Solution stability of the 90Y-labeled conjugate in ascorbic acid buffer, RCP by HPLC (Method 1); format: physicochemical; conditions: for RCP (radiochemical purity): 0.1 M ascorbic acid buffer pH 5.0
Protocol: (§1) The integrity of a radiopharmaceutical is measured by the radiochemical purity (RCP) of the radiolabeled compound using ITLC or more preferably HPLC. The advantage of using HPLC is that radio-impurities caused by radiolytic degradation can be separated from the radiopharmaceutical under optimized chromatographic conditions. […] The radiopharmaceutical compositions of this invention are effective in maintaining the long-term stability of samples that have been frozen, thawed, and re-tested up to 5 days post-labeling.
(§2) The initial RCP of a radiopharmaceutical is largely dependent on radiolabeling conditions such as pH, heating temperature and time. Once a radiopharmaceutical is prepared in high yield, the ability of an antioxidant to stabilize a radiopharmaceutical composition is measured by the RCP change over a certain period of time.
as §1, with “periodically for” for “up to”, “days.” for “days post-labeling.”
as §2, with “stability” for “ability”, “the” for “an antioxidant to stabilize a”, “change of the radiopharmaceutical” for “change”
Analytical Methods. HPLC method 1 used a HP-1100 HPLC system with a UV/visible detector (Δ=220 nm), an IN-US radio-detector, and a Zorbax C18 column (4.6 mm×250 mm, 80 A pore size). The flow rate was 1 mL/min with the mobile phase starting with 92% solvent A (0.025 M ammonium acetate buffer, pH 6.8) and 8% solvent B (acetonitrile) to 90% solvent A and […] at 18 min, followed by an isocratic wash using 40% of solvent A and 60% solvent B from 19 to 25 min.
(2S)-2-[({2,6-Dimethyl-4-[3-(N-{2-[3-sulfo-2-(3-sulfo-2-{2-[1,4,7,10-tetraaza-4,7,10-tris(carboxymethyl) cyclododecyl]acetylamino}propyl)propyl]ethyl}carbamoyl)-propoxy]phenyl}sulfonyl)amino]-3-({7-[(imidazol-2-ylamino)methyl]-1-methyl-4-oxo(3-hydroquinolyl)}-carbonylamino)propanoic acid trifluoroacetate was prepared as disclosed in U.S. patent application Ser. No. 09/456,300 and was subsequently dissolved in 0.1 M AA buffer (pH 5.0) to give a concentration of 100 μg/mL. The resulting solution was immediately degassed under vacuum for another 1-2 min. To a clean sealed 5 mL vial was added 5.0 mL of 0.1 M ascorbic acid buffer (pH 5.0) containing 500 μg of (2S)-2-[({2,6-Dimethyl-4-[3-(N-{2-[3-sulfo-2-(3-sulfo-2-{2-[1,4,7,10-tetraaza-4,7,10-tris(carboxymethyl) cyclododecyl]acetylamino}propyl) propyl]ethyl}carbamoyl)propoxy]phenyl}sulfonyl)amino]-3-({7-[(imidazol-2-ylamino)methyl]-1-methyl-4-oxo(3-hydroquinolyl)}carbonylamino)propanoic acid trifluoroacetate. The solution was degassed again under vacuum. Upon addition of ˜75 μL of ^90YCl3 solution (101.5 mCi) in 0.05 N HCl, the reaction mixture was heated at 95° C. for 30 min. After cooling to room temperature, a sample of the resulting solution was diluted 50-fold with saline containing sodium gentisate (10 mg/mL), and was then analyzed by HPLC (Method 1, injection volume 5 μL). The resulting mixture was then kept in a dry-ice box (−78° C.) for 5 days. Samples were analyzed at t=0 (RCP=98.5%), 24 h (RCP=98.4%), 68 h (RCP=98.0%), and 120 h (RCP=98.8%). The retention time was 14.8 min.

[3] = 5 mL AA solution containing 100 mg AA, pH=5.0

Substance: ^111In-(2S)-2-[({2,6-Dimethyl-4-[3-(N-{2-[3-sulfo-2-(3-sulfo-2-{2-[1,4,7,10-tetraaza-4,7,10-tris(carboxymethyl) cyclododecyl]acetylamino}--propyl)propyl]ethyl}carbamoyl)-propoxy]phenyl}sulfonyl)amino]-3-({7-[(imidazol-2-ylamino)methyl]-1-methyl-4-oxo(3-hydroquinolyl)}-carbonylamino)propanoic acid trifluoroacetate [Example 3]
- remains stable in solution (time) ([1]; 0.1 M ascorbic acid buffer pH 6.0, room temperature): at least 24 hours
- RCP (radiochemical purity) ([1]; 24 h, kept at room temperature): 97.6%
- RCP (radiochemical purity) ([1]; t 0, 2.8 mCi 111In): 98.2%

Substance: ^90Y-(2S)-2-[({2,6-Dimethyl-4-[3-(N-{2-[3-sulfo-2-(3-sulfo-^2-{^2-[1,4,7,10-tetraaza-4,7,10-tris(carboxymethyl) cyclododecyl]acetylamino}--propyl)propyl]ethyl}carbamoyl)-propoxy]phenyl}sulfonyl)amino]-^3-({^7-[(imidazol-2-ylamino)methyl]-1-methyl-4-oxo(3-hydroquinolyl)}-carbonylamino)propanoic acid trifluoroacetate [Example 2]
- RCP while stable over at least 5 days [2, 3]: > 96%
- remains stable (time) [2, 3]: at least 5 days
- RCP (radiochemical purity) ([2]; 24 h, kept in dry-ice box (-78° C.)): 98.4%
- RCP (radiochemical purity) ([2]; 68 h, kept in dry-ice box (-78° C.)): 98.0%
- RCP (radiochemical purity) ([2]; 120 h, kept in dry-ice box (-78° C.)): 98.8%
- RCP (radiochemical purity) ([2]; t=0, 100 mCi 90Y): 98.5%
